Reference: patent US20220364142
Positions count from the first letter of the chain named. Names may count otherwise.

T1: Consensus peptide P4'P (EVKALEEP) (not fully specified)
T1 chain: EVKALEEP

T2: Consensus peptide P3GP1'V (EGKAVLEA) (not fully specified)
T2 chain: EGKAVLEA

T3: Consensus peptide P4'A (EVKALEEA) (not fully specified)
T3 chain: EVKALEEA

T4: Consensus peptide P2R (EVRALEEA) (not fully specified)
T4 chain: EVRALEEA

T5: DABCYL-TPLKSPPPSPR-EDANS (Calpain Substrate III; Calbiochem)
T5 chain: TPLKSPPPSPR

T6: PR1478 peptide
T6 chain: WRQNRGGGCINH

T7: PR1476 peptide
T7 chain: RQNRGGGCINH

B1: CAPN5-G267S protease core domain (protein)
chain: MFSCVKPYEDQNYSALRRDCRRRKVLFEDPLFPATDDSLYYKGTPGPAVRWKRPKGICEDPRLFVDGISSHDLHQGQVGNCWFVAACSSLASRESLWQKVIPDWKEQEWDPEKPNAYAGIFHFHFWRFGEWVDVVIDDRLPTVNNQLIYCHSNSRNEFWCALVEKAYAKLAGCYQALDGGNTADALVDFTGGVSEPIDLTEGDFANDETKRNQLFERMLKVHSRGGLISASIKAVTAADMEARLACGLVKGHAYAVTDVRKVRLGHSLLAFFKSEKLDMIRLRNPWGEREWNGPWSDTSEEWQKVSKSEREKMGVTVQDDGEFWMTFEDVCRYFTDIIKCRVI
B2: Calpain-5 protease core domain (CAPN5-PC) (protein)
chain: B1 chain with S267G

Columns and labels:
[1] = biological target: T1, Consensus peptide P4'P (EVKALEEP)
[2] = biological target: T2, Consensus peptide P3GP1'V (EGKAVLEA)
[3] = biological target: T3, Consensus peptide P4'A (EVKALEEA)
[4] = biological target: T4, Consensus peptide P2R (EVRALEEA)
[5] = biological target: T5, DABCYL-TPLKSPPPSPR-EDANS (Calpain …)
PR1478 peptide = biological target: T6, PR1478 peptide
PR1476 peptide = biological target: T7, PR1476 peptide

Row | Protein | hydrolysis of consensus FRET peptide [1] | hydrolysis of consensus FRET peptide [2] | hydrolysis of consensus FRET peptide [3] | catalytic efficiency (kcat/Km) [4] [vs. 7 M^-1s^-1] | hydrolysis of consensus FRET peptide [4] | substrate turnover (kcat) [4] | hydrolysis of FRET substrate (EDANS signal) [5] | proteolytic cleavage of FRET peptide substrate (EDANS fluorescence) (PR1478 peptide) | substrate quality compared with PR1476 (PR1478 peptide) | catalytic efficiency (kcat/Km) (PR1476 peptide) [vs. 7 M^-1s^-1] | proteolytic cleavage of FRET peptide substrate (EDANS fluorescence) (PR1476 peptide)
1 | B1 | These substrates were hydrolyzed by 1.6 µM CAPN5-PC p.G267S in the presence of 10 mM Ca^2+ | These substrates were hydrolyzed by 1.6 µM CAPN5-PC p.G267S in the presence of 10 mM Ca^2+ | These substrates were hydrolyzed by 1.6 µM CAPN5-PC p.G267S in the presence of 10 mM Ca^2+ | 11 | These substrates were hydrolyzed by 1.6 µM CAPN5-PC p.G267S in the presence of 10 mM Ca^2+ | The observed substrate turnover (kcat) of these consensus peptides indicated that peptide P2R is preferred by CAPN5-PC and suggests a preference for arginine in the P2 subsite | DABCYL-TPLKSPPPSPR (SEQ ID NO:3)-EDANS (Calpain Substrate III; Calbiochem; 40 µM) hydrolysis by 50 nM CAPN5-G267S protease core domain | – | – | – | –
2 | B2 | – | – | – | – | – | – | – | PR1478 also displays activity in a CAPN5 dose-dependent manner | a tryptophan was added to the N-terminus of PR1476, which makes PR1478 a better substrate for CAPN5 | 11 | PR1476 displays activity in a CAPN5 dose-dependent manner
